± gives the uncertainty stated by the source.
B1: Transitional endoplasmic reticulum ATPase, residues 26 to 106; numbered along this chain, P55072 (parent)
chain: LIVDEAINEDNSVVSLSQPKMDELQLFRGDTVLLKGKKRREAVCIVLSDDTCSDEKIRMNRVVRNNLRVRLGDVISIQPCP

Variants of: B1
Assay: abundance fitness (aPCA) (normalised: wild type 0, dead -1); higher = more abundant; growth selection in yeast, the domain comes from the species named
Details: Homo sapiens

Variant | abundance fitness
M21T | -0.825 ± 0.18
M21Y | -0.516 ± 0.16
M21Q | -0.752 ± 0.18
M21L | 0.048 ± 0.074
D50T | -0.037 ± 0.087
D50M | 0.025 ± 0.1
D50H | -0.021 ± 0.16
D50Q | -0.277 ± 0.2
E9H | -0.109 ± 0.11
E9K | -0.216 ± 0.079
E9W | -0.098 ± 0.049
E9S | 0.043 ± 0.061
T51M | -0.131 ± 0.076
T51G | -0.024 ± 0.045
T51Q | -0.183 ± 0.12
T51K | -0.065 ± 0.088
D49G | -0.204 ± 0.054
D49M | -0.78 ± 0.2
D49Y | -0.745 ± 0.23
D49V | -0.455 ± 0.068
D49A | -0.139 ± 0.07
D49F | -0.936 ± 0.29
D49N | -0.254 ± 0.15
G72R | -0.177 ± 0.051

Variant | abundance fitness
G72A | -0.271 ± 0.061
G72F | -0.336 ± 0.22
G72M | -0.392 ± 0.12
G72P | -0.891 ± 0.21
G72C | -0.453 ± 0.2
G72Y | -0.256 ± 0.23
R61K | 0.079 ± 0.095
R61P | -0.003 ± 0.15
R61A | 0.059 ± 0.067
R61M | -0.178 ± 0.19
T31R | 0.053 ± 0.047
T31V | -0.104 ± 0.049
T31Y | -0.161 ± 0.14
E55C | 0.002 ± 0.068
E55Q | 0.003 ± 0.084
E55Y | -0.029 ± 0.099
D30Y | -0.732 ± 0.2
D30H | -0.11 ± 0.12
D30I | -0.68 ± 0.29
D30S | -0.175 ± 0.064
D30M | -0.047 ± 0.1
L67V | -0.35 ± 0.058
L67P | -0.789 ± 0.14
L67D | -0.823 ± 0.25

Variant | abundance fitness
L67T | -0.693 ± 0.25
V14K | -0.856 ± 0.32
V14F | -1.06 ± 0.25
V14E | -0.945 ± 0.31
V14Y | -0.803 ± 0.23
P79H | -0.037 ± 0.11
P79D | -0.383 ± 0.15
P79G | -0.083 ± 0.06
P79E | -0.087 ± 0.082
P79I | -0.181 ± 0.14
I45V | 0.028 ± 0.032
I45G | -0.06 ± 0.036
I45M | -0.137 ± 0.064
I45L | -0.016 ± 0.059
I45S | -0.028 ± 0.059
I45W | -0.176 ± 0.086
D10L | -0.105 ± 0.042
D10H | 0.098 ± 0.13
D10K | -0.007 ± 0.11
D10T | -0.01 ± 0.068
D10A | -0.059 ± 0.041
D54G | -0.075 ± 0.044
S12G | 0.029 ± 0.045
S12L | -0.019 ± 0.053

Variant | abundance fitness
S12D | 0.019 ± 0.066
S12P | -0.126 ± 0.065
N11Y | -0.079 ± 0.12
N11R | -0.042 ± 0.038
N11C | -0.091 ± 0.059
N11F | -0.208 ± 0.18
N11P | -0.011 ± 0.071
N11H | 0.103 ± 0.089
R68M | 0.01 ± 0.087
R58L | -0.037 ± 0.072
R58C | -0.255 ± 0.13
R58E | -0.376 ± 0.098
L33W | -0.155 ± 0.065
L33I | -0.23 ± 0.14
L33V | 0.042 ± 0.061
L33K | -0.045 ± 0.1
L33F | -0.318 ± 0.17
N66P | -0.952 ± 0.2
N66C | -0.374 ± 0.27
N66Y | -0.176 ± 0.13
N66H | -0.314 ± 0.14
N66L | -0.012 ± 0.066
P19A | -0.018 ± 0.054
P19Q | 0.093 ± 0.1

Variant | abundance fitness
P19D | -0.101 ± 0.16
P19S | 0.051 ± 0.059
P19E | 0.087 ± 0.088
R28A | 0.085 ± 0.06
R28E | 0.094 ± 0.056
R28N | 0.093 ± 0.14
R28T | 0.034 ± 0.069
R28S | -0.009 ± 0.055
V69H | -1 ± 0.43
V69T | -0.12 ± 0.079
V69F | -0.717 ± 0.15
V69C | 0.067 ± 0.072
C52A | -0.253 ± 0.069
C52F | -0.495 ± 0.27
C52E | -0.416 ± 0.085
L1F | 0.15 ± 0.13
L1A | -0.126 ± 0.11
L1M | -0.046 ± 0.16
V74N | 0.034 ± 0.2
V74R | 0.036 ± 0.062
V74Q | 0.037 ± 0.095
K38L | 0.019 ± 0.081
K38Y | -0.088 ± 0.14
K38C | -0.225 ± 0.18

Variant | abundance fitness
N8C | -0.015 ± 0.058
N8L | -0.022 ± 0.049
N8Q | -0.025 ± 0.089
N8G | 0.022 ± 0.037
N8F | -0.083 ± 0.12
N8S | -0.036 ± 0.053
N8W | -0.13 ± 0.055
N8V | -0.096 ± 0.062
V43Y | 0.072 ± 0.14
V43P | -0.26 ± 0.085
V43A | -0.026 ± 0.064
V43L | -0.099 ± 0.066
V43Q | 0.147 ± 0.12
R40W | -0.059 ± 0.16
R40A | 0.097 ± 0.086
L34I | 0.074 ± 0.21
L34C | 0.26 ± 0.41
L34V | -0.047 ± 0.07
L34F | -0.856 ± 0.39
L34T | -0.558 ± 0.07
L34A | -0.292 ± 0.1
K37R | 0.028 ± 0.076
K37C | -0.226 ± 0.1
K37A | -0.222 ± 0.12

Variant | abundance fitness
K37W | -0.183 ± 0.1
K37I | -0.182 ± 0.15
K37E | -0.035 ± 0.12
V62N | 0.109 ± 0.21
V62C | 0.029 ± 0.095
V62S | 0.051 ± 0.062
V62D | 0.004 ± 0.12
G36Y | -0.186 ± 0.12
G36C | 0.015 ± 0.083
G36E | -0.191 ± 0.15
G36K | -0.423 ± 0.15
G36R | -0.37 ± 0.056
R39L | -0.054 ± 0.061
R39I | -0.082 ± 0.17
R39N | -0.17 ± 0.11
R39A | -0.001 ± 0.06
R39F | -0.007 ± 0.12
R39K | -0.041 ± 0.11
V3Q | -0.891 ± 0.17
V3I | -0.037 ± 0.13
I57G | -0.951 ± 0.15
I57N | -0.716 ± 0.3
I57T | -0.622 ± 0.11
